PMC6044475

What was measured:
Test in all cases: SEC
[1] = molecular target: Eca E318Q (Enterococcus casseliflavus)
[2] = molecular target: Eca T320A (Enterococcus casseliflavus)
[3] = molecular target: Eca Y396A (Enterococcus casseliflavus)

For Eca E318Q (natural protein), the stoichiometry N [1] was 2.
Eca T320A (natural protein) was tested, and the stoichiometry N [2] was 2.
Eca Y396A (natural protein) gave a stoichiometry N [3] of 2.
